{"source": "patent US20150267232A1", "about": "“IN VIVO AND IN VITRO CARBENE INSERTION AND NITRENE TRANSFER REACTIONS CATALYZED BY HEME ENZYMES” (California Institute of Technology, priority 2012, published 2015)", "molecules": {"B1": {"name": "ABC-CIS: BM3-CIS + C400S (protein, listed as Bacillus megaterium)", "chain": "TIKEMPQPKTFGELKNLPLLNTDKPVQALMKIADELGEIFKFEAPGRVTRYLSSQRLIKEACDESRFDKNLSQALKFARDFAGDGLVTSWTHEKNWKKAHNILLPSFSQQAMKGYHAMMVDIAVQLVQKWERLNADEHIEVSEDMTRLTLDTIGLCGFNYRFNSFYRDQPHPFIISMVRALDEVMNKLQRANPDDPAYDENKRQFQEDIKVMNDLVDKIIADRKARGEQSDDLLTQMLNGKDPETGEPLDDGNIRYQIITFLIAGHEATSGLLSFALYFLVKNPHVLQKVAEEAARVLVDPVPSYKQVKQLKYVGMVLNEALRLWPTAPAFSLYAKEDTVLGGEYPLEKGDEVMVLIPQLHRDKTVWGDDVEEFRPERFENPSAIPQHAFKPFGNGQRASIGQQFALHEATLVLGMMLKHFDFEDHTNYELDIKETLTLKPKGFVVKAKSKKIPLGGIPSPSTEQSAKKVRKKAENAHNTPLLVLYGSNMGTAEGTARDLADIAMSKGFAPQVATLDSHAGNLPREGAVLIVTASYNGHPPDNAKQFVDWLDQASADEVKGVRYSVFGCGDKNWATTYQKVPAFIDETLAAKGAENIADRGEADASDDFEGTYEEWREHMWSDVAAYFNLDIENSEDNKSTLSLQFVDSAADMPLAKMHGAFSTNVVASKELQQPGSARSTRHLEIELPKEASYQEGDHLGVIPRNYEGIVNRVTARFGLDASQQIRLEAEEEKLAHLPLAKTVSVEELLQYVELQDPVTRTQLRAMAAKTVCPPHKVELEALLEKQAYKEQVLAKRLTMLELLEKYPACEMKFSEFIALLPSIRPRYYSISSSPRVDEKQASITVSVVSGEAWSGYGEYKGIASNYLAELQEGDTITCFISTPQSEFTLPKDPETPLIMVGPGTGVAPFRGFVQARKQLKEQGQSLGEAHLYFGCRSPHEDYLYQEELENAQSEGIITLHTAFSRMPNQPKTYVQHVMEQDGKKLIELLDQGAHFYICGDGSQMAPAVEATLMKSYADVHQVSEADARLWLQQLEEKGRYAKDVWAG", "modifications": "cytochrome P450NADPH-P-450 reductase precursor, cytochrome P450 (BM3), CYP102A1", "notes": "BM3-CIS + C400S"}, "B2": {"name": "P450BM3: wild-type cytochrome P450BM3 from Bacillus megaterium (SEQ ID NO: 1) (protein, listed as Bacillus megaterium)", "chain": "TIKEMPQPKTFGELKNLPLLNTDKPVQALMKIADELGEIFKFEAPGRVTRYLSSQRLIKEACDESRFDKNLSQALKFVRDFAGDGLFTSWTHEKNWKKAHNILLPSFSQQAMKGYHAMMVDIAVQLVQKWERLNADEHIEVPEDMTRLTLDTIGLCGFNYRFNSFYRDQPHPFITSMVRALDEAMNKLQRANPDDPAYDENKRQFQEDIKVMNDLVDKIIADRKASGEQSDDLLTHMLNGKDPETGEPLDDENIRYQIITFLIAGHETTSGLLSFALYFLVKNPHVLQKAAEEAARVLVDPVPSYKQVKQLKYVGMVLNEALRLWPTAPAFSLYAKEDTVLGGEYPLEKGDELMVLIPQLHRDKTIWGDDVEEFRPERFENPSAIPQHAFKPFGNGQRACIGQQFALHEATLVLGMMLKHFDFEDHTNYELDIKETLTLKPEGFVVKAKSKKIPLGGIPSPSTEQSAKKVRKKAENAHNTPLLVLYGSNMGTAEGTARDLADIAMSKGFAPQVATLDSHAGNLPREGAVLIVTASYNGHPPDNAKQFVDWLDQASADEVKGVRYSVFGCGDKNWATTYQKVPAFIDETLAAKGAENIADRGEADASDDFEGTYEEWREHMWSDVAAYFNLDIENSEDNKSTLSLQFVDSAADMPLAKMHGAFSTNVVASKELQQPGSARSTRHLEIELPKEASYQEGDHLGVIPRNYEGIVNRVTARFGLDASQQIRLEAEEEKLAHLPLAKTVSVEELLQYVELQDPVTRTQLRAMAAKTVCPPHKVELEALLEKQAYKEQVLAKRLTMLELLEKYPACEMKFSEFIALLPSIRPRYYSISSSPRVDEKQASITVSVVSGEAWSGYGEYKGIASNYLAELQEGDTITCFISTPQSEFTLPKDPETPLIMVGPGTGVAPFRGFVQARKQLKEQGQSLGEAHLYFGCRSPHEDYLYQEELENAQSEGIITLHTAFSRMPNQPKTYVQHVMEQDGKKLIELLDQGAHFYICGDGSQMAPAVEATLMKSYADVHQVSEADARLWLQQLEEKGRYAKDVWAG", "modifications": "cytochrome P450NADPH-P-450 reductase precursor, cytochrome P450 (BM3), CYP102A1"}, "B3": {"name": "BM3-T268A: P450BM3 variant: T268A (protein, listed as Bacillus megaterium)", "chain": "B2 chain with T268A", "modifications": "cytochrome P450NADPH-P-450 reductase precursor, cytochrome P450 (BM3), CYP102A1"}}, "format_in_all_cases": "biochemical", "key": {"[1]": {"experiment": "Small-scale anaerobic C—H amination with purified enzymes, azide 4", "procedure": "(§1) Hemin also was capable of catalyzing this reaction when reduced with dithionite (Table 13).\n(§2) Small scale reactions containing either 0.1% loading of ABC-CIS or ABC-T268A or 1% loading of hemin with azides 1, 4, or 6 according to standard procedures.\n(§3) Small-scale reactions (400 μL) were conducted in 2 mL crimp vials (Agilent Technologies, San Diego, Calif.) containing buffer (0.1 M potassium phosphate pH 8.0), enzyme (0.1-0.5% catalyst loading) and oxygen depletion system (10× stock solution containing 14,000 U/mL catalase, 1,000 U/mL glucose oxidase dissolved in 0.1 M KPi pH 8.0). Enzyme (P450 or P411) solution and oxygen depletion mixture were added to the vial with a small stir bar before crimp-sealing. Portions of phosphate buffer (190 μL, 0.1 M, pH=8.0), glucose (40 μL, 250 mM) and NADPH (40 μL, 20 mM), or multiples thereof, were combined in a larger crimp sealed vial and degassed by sparging with argon for at least 5 min. In the meantime, the headspace of the sealed 2 mL reaction vial with the P450 solution was made anaerobic by flushing argon over the protein solution (with no bubbling). The buffer/reductant/glucose solution (270 μL) was syringed into the reaction vial with continuous argon purge of the vial headspace. An arylsulfonyl azide solution in DMSO (10 μL, 80 mM) was added to the reaction vial via a glass syringe, and the reaction was left stirring for 24 h at room temperature under positive argon pressure. Final concentrations of the reagents were typically: 2 mM arylsulfonyl azide, 2 mM NADPH, 25 mM glucose, 2 or 10 μM P450. Reactions were quenched by adding 30 μL 3 M HCl under argon. To the vials were then added acetonitrile (430 uL) and internal standard (o-toluenesulfonamide 10 mM in 50% acetonitrile 50% water, 1 mM final concentration). […] A portion (20 μL) of the supernatant was then analyzed by HPLC. […] Sultam formation was quantified comparison of integrated peak areas of internal standard and sultam at 220 nm to a calibration curve made using synthetically produced sultam and internal standard."}, "[2]": {"experiment": "Small-scale anaerobic C—H amination with purified enzymes, azide 1", "details": "for Product (3) / TTN on substrate 1: 1% loading of hemin; for % ee: 0.1 mol % catalyst loading, (S−R)/(S+R)", "method_in_brief": "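Purified P450 or P411 enzymes (0.1-0.5% catalyst loading) in 400 μL reactions of 0.1 M potassium phosphate pH 8.0 with a catalase/glucose oxidase oxygen-depletion system were made anaerobic under argon, given 10 μL of 80 mM arylsulfonyl azide in DMSO, and stirred 24 h at room temperature. After HCl quench and acetonitrile addition, sultam was quantified by HPLC at 220 nm against an internal standard; enantioselectivity was measured by chiral HPLC.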"}, "[3]": {"experiment": "Small-scale anaerobic C—H amination with purified enzymes, azide 6", "procedure": "as §1, §2, §3"}, "[4]": {"details": "0.1 mol % catalyst loading (2 μM), 2 mM azide 1, 2 mM NADPH, benzosultam 3"}, "[5]": {"details": "catalyst loading 0.5 mol %, NADPH, anaerobic"}}, "note": "Positions count from the first letter of the chain named. Names may count otherwise. “And” between values parts separate entries of the source, which are not always exact repeats. Identical values can stand only once.", "data": [{"molecule": "hemin", "values": [{"measurement": "activity on substrate 4", "setting": "[1]; free hemin, 1% loading", "value": "no measurable activity"}, {"measurement": "Product (3) / TTN on substrate 1", "setting": "[2]", "value": 3.1}, {"measurement": "Product (3) / TTN on substrate 1", "setting": "[2]; listed as hemin", "value": 3}, {"measurement": "% activity", "setting": "[2]; CS-P450 + Hemin", "value": 0, "unit": "%"}, {"measurement": "TTN", "setting": "[2]; CS-P450 + Hemin (2 μM hemin)", "value": 0}, {"measurement": "stereochemical outcome of product 3", "setting": "[2]; reaction with hemin", "value": "racemic"}, {"measurement": "Product (7) / TTN on substrate 6", "setting": "[3]; 1% loading of hemin", "value": 55}]}, {"molecule": "B1", "values": [{"measurement": "Product (5)", "setting": "[1]; 0.1% loading, azide 4", "value": 26}, {"measurement": "Product (3)", "setting": "[2]; 0.1% loading, azide 1, TTN", "value": 310}, {"measurement": "TTN", "setting": "[2]; [4]", "value": "313 and 310"}, {"measurement": "% ee", "setting": "[2]; benzosultam 3", "value": 67, "unit": "%"}, {"measurement": "TTN", "setting": "[2]; [NADPH] 0 mM", "value": 0}, {"measurement": "[sultam]", "setting": "[2]; [NADPH] 0 mM", "value": 0, "unit": "mM"}, {"measurement": "TTN", "setting": "[2]; [NADPH] 0.01 mM", "value": 27}, {"measurement": "[sultam]", "setting": "[2]; [NADPH] 0.01 mM", "value": 0.053, "unit": "mM"}, {"measurement": "TTN", "setting": "[2]; [NADPH] 0.02 mM", "value": 82}, {"measurement": "[sultam]", "setting": "[2]; [NADPH] 0.02 mM", "value": 0.164, "unit": "mM"}, {"measurement": "TTN", "setting": "[2]; [NADPH] 0.1 mM", "value": 243}, {"measurement": "[sultam]", "setting": "[2]; [NADPH] 0.1 mM", "value": 0.486, "unit": "mM"}, {"measurement": "TTN", "setting": "[2]; [NADPH] 2 mM", "value": 161}, {"measurement": "[sultam]", "setting": "[2]; [NADPH] 2 mM, 0.1 mol % loading", "value": 0.322, "unit": "mM"}, {"measurement": "TTN (C—H amination product 3)", "setting": "[2]; [5]", "value": "over 140"}, {"measurement": "yield of 3 by HPLC", "setting": "[2]; [5]", "value": 73, "unit": "%"}, {"measurement": "Product (7)", "setting": "[3]; 0.1% loading, azide 6", "value": 36}]}, {"molecule": "B2", "values": [{"measurement": "TTN", "setting": "[2]; [4]", "value": 2.1}, {"measurement": "TTN (C—H amination product 3)", "setting": "[2]; [5]", "value": 4}]}, {"molecule": "B3", "values": [{"measurement": "TTN", "setting": "[2]; [4]", "value": 15}, {"measurement": "% ee", "setting": "[2]; benzosultam 3", "value": 36, "unit": "%"}, {"measurement": "activity with reductant NADPH", "setting": "[2]; NADPH (2 mM), 0.1 mol % loading, azide 1", "value": 22}, {"measurement": "TTN (C—H amination product 3)", "setting": "[2]; [5]", "value": 28}, {"measurement": "activity with reductant Dithionite", "setting": "[2]; dithionite (2 mM), 0.1 mol % loading, azide 1", "value": 25}]}]}
